Target: Gβγ subunits (fluorescent-tagged, of the FRET Gαi activity reporter) (UniProt P62873)
Assay: FRET or BRET

loss of FRET signal after EGF stimulation | reduction in FRET signal compared to WT and 3YF | Substance
50% |  | Gαi1-WT activity reporter (fluorescent-tagged Gαi) (from UniProt P63096 1-354) (natural protein)
 | 80% | Gαi1-Y154H activity reporter (from UniProt P63096 1-354) (natural protein)

Reference: paper doi:10.1101/2020.08.09.229716
